1 molecule from PMC10641220, “Pseudomonas aeruginosa AlgF is a protein–protein interaction mediator required for acetylation of the alginate exopolysaccharide” (The Journal of Biological Chemistry, 2023) can be followed below.

One assay addresses T1, AlgJPp^75-370 (Pseudomonas putida, UniProt Q88ND3 75-370).
T1 construct: AlgJ of Pseudomonas putida, residues 75-370
T1 sequence (looked up): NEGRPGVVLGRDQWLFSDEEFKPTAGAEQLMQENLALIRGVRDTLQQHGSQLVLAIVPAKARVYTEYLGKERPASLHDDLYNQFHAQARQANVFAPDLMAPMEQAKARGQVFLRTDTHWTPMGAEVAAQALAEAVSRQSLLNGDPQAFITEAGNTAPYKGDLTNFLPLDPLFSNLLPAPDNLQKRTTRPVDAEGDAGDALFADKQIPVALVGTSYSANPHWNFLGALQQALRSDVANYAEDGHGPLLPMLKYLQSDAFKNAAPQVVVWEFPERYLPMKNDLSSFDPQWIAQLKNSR
As to the kind of experiment: ITC; MicroCal Auto-ITC200, 20 °C, 50 mM Tris pH 7.8, 150 mM NaCl, 2% glycerol, 50 mM arginine, 50 mM glutamic acid; 1.86 mM AlgJ (syringe) into 188 μM AlgF (cell); 4.17 mM AlgF (syringe) into 500 μM AlgX (cell); 2.97 mM AlgJ (syringe) into 170 μM AlgX (cell). The conditions noted are these: both partners purified. (In general: In ITC the heat of successive injections is recorded.)

A further assay has as its target T2, AlgXPp (Pseudomonas putida KT2440, UniProt Q88ND0 25-479).
T2 construct: AlgX of Pseudomonas putida KT2440, codon-optimized synthetic gene of full-length AlgXPp in pET24b; AlgX is a periplasmic protein
T2 sequence (looked up): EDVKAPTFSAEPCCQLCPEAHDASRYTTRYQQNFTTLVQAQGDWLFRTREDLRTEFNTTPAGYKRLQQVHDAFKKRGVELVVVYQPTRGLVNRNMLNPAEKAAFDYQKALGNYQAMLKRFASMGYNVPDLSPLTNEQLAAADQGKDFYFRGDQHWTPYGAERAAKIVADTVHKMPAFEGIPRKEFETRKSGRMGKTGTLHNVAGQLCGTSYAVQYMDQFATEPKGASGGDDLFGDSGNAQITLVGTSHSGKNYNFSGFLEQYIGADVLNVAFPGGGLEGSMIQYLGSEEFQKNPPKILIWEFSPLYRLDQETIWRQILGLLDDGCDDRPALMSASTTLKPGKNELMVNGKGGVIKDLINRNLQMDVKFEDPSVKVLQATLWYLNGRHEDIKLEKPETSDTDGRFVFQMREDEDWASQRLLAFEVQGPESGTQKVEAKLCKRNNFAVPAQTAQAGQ
The assay is described as above. The conditions noted are these: both partners purified.

B1: AlgFPp^29-215 (domain or fragment, Pseudomonas putida KT2440, UniProt Q88ND4 29-215, looked up)
chain: DAALYGPSAPKGSTFVRLYNATSAPAAASVGNTQIKQVGAQASSDFSFLPGGDYTAQVGGKSVPVKLASDKYYTLVNSNSGSPKLIEEPPFKNKQKALVRVQNLSDQQLTLKTADGKTEVVKPVAANGRGEREINPVKVNLALYQGDKKVGDVKPVALERGEAAVLYVTGSGNALSPVWVTRPVASN
notes: the results text calls the construct 30-215; Cloned in pET28a with a 3' stop codon; also called AlgFPp^30-215; source: E. coli BL21 CodonPlus (λDE3), purified (Ni-NTA, Superdex 200 SEC)
Consider B1, for which the values for the Kd in the assay with AlgJPp^75-370 and in the assay with AlgXPp were 86 ± 12 µM and 178 ± 5 µM, respectively.
